Consider four molecules from patent publication US20210009686A1 (BEIJING XUANYI PHARMASCIENCES, published 2021).

Assay [1] has as its target T1, claudin 18.2 (CLDN18.2) (human).
T1 construct: also called Claudin 18 isotype 2; HEK293-CLDN18.2
The assay is described as follows: FACS, HEK293-CLDN18.2 cells.
Description: The interaction of 20 purified chimeric antibodies with CLDN18.2 was assessed by in-cell ELISAs and FACS using HEK293-CLDN18.2 cells. […] The FACS assays were performed as follows: Serial dilutions for each antibody clone shown in Tables 7 and 8 were prepared and stained with HEK293-CLDN18.2 cells on ice for 30 min, with final antibody concentrations of 10 g/ml, 3 g/ml, 1 g/ml, 0.3 μg/ml, 0.1 μg/ml, 0.03 μg/ml, 0.01 μg/ml, and 0 μg/ml. […] Cells were washed, and analyzed by FACS.

The target of assay [2] is T2, claudin 18.1 (CLDN18.1) (human, UniProt P56856 1-261).
T2 construct: also called HEK293-CLDN18.1
The assay is described as follows: in-cell ELISA, HEK293-CLDN18.1 cells. On the technique in general: ELISA stands for enzyme-linked immunosorbent assay.
Description: (§1) In-cell ELISAs were performed as follows: 5×10³ HEK293-CLDN18.2 cells were seeded per well in a poly-L-lysine-coated 96-well plate. The plates were then incubated at 37° C. with 5% CO₂ for 2 days. Following incubation, culture media was removed from each well, and the HEK293-CLDN18.2 cells were blocked with 200 μl blocking buffer (3% BSA/PBS (pH 7.4)) per well for 1 hour at room temperature. Each hybridoma supernatant was incubated with cells at room temperature for 1 hour. Cells were gently washed 3 times with 200 μl PBS (pH 7.4) containing 1 mM Ca²⁺ and 0.5 mM Mg²⁺. Next, cells were incubated with 100 μl of HRP-conjugated goat anti-human IgG (H+L) antibody for 1 hour at room temperature. Following the incubation, the cells were washed three times with 200 μl PBS (pH 7.4) containing 1 mM Ca²⁺ and 0.5 mM Mg²⁺. 100 μl of 1-Step™ Ultra TMB-ELISA Substrate was added to each well, and the reactions were stopped by addition of 50 μl of stop solution. OD₄₅₀ was measured using CLARIOStar microplate reader. The in-cell ELISAs were repeated for each clone using HEK293-CLDN18.1 cells.

For assay [3], the target named is T1, claudin 18.2 (CLDN18.2). In words: in-cell ELISA, HEK293-CLDN18.2 cells.
Description: as §1
The in-cell ELISAs were performed as described above. […] Cells were washed, and analyzed by FACS.

T2 sequence (P56856 whole entry): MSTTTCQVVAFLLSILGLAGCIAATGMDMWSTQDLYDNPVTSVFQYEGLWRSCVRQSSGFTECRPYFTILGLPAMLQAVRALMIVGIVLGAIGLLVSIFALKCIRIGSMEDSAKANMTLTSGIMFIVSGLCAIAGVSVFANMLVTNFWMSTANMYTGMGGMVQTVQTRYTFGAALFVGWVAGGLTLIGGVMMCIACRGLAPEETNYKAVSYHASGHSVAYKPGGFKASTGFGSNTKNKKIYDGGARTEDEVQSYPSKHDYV

B1: chimeric Ab 1-M5-A (antibody, V domains shown)
VH: EVQLVESGGALVKSGGSLRLSCAASGFTFSNNAMSWIRQTPEKRLEWVATIIIGGTYTYYPDSVKGRFTISRDNAKNTLYLQMSSLRSEDTAFYYCARQVYGNSFAYWGQGTLVSVSA
VL: DIVMTQSPSSLTVTAGEKVTMSCKSSQSLLNSGNQKNYLTWYQQKPGQPPKLLIYWASTRESGVPDRFTGSGSGTDFTLTISSVQAEDLAVYYCQNNYFYPFTFGSGTKLEIK
In general, EC50 refers to the midpoint of the concentration-response curve. Low values mean a more potent agent, high ones a less potent agent. Turning to B1, the EC50 was 0.044 µg/mL in assay [1] and 0.042 µg/mL in assay [3]. In assay [2], the binding result was “no binding (tested: 1 µg/ml)”.

B2: chimeric Ab 9-M7-A (antibody, V domains shown)
VH: EVQLVESGGALVKPGGSLKLSCAASGFTFSNYAMSWIRQTPEKRLEWVATIIIGGTYTYYPDSVKGRFTISRDNAKNTLYLQMSSLRSEDTALYYCARQVYGNSFAYWGQGTLVTVSA
VL: DIVMTQSPSSLTVTAGEKVTMSCKSSQSLLNSGNQKNYLTWYQQKPGQPPKLLIYWASTRESGVPDRFTGSGSGTDFTLTISSVQAEDLAVYYCQNNYIYPFTFGSGTKLEIK
For the molecule B2, the EC50 is 0.095 µg/mL in assay [1] and 0.154 µg/mL in assay [3]. The binding result in assay [2] is recorded as “no binding (tested: 1 µg/ml)”.

B3: chimeric Ab 9-N14-A (antibody, V domains shown)
VH: EVQLVESGGGLVKPGGSRKLSCAASGFTFSDYGMYWVRQAPEKGLEWLAYISSGSNNIYYADTVKGRFTISRDNAKNTLFLQMTSLRSEDTAMYYCARIARGNAMDYWGQGTSVIVSS
VL: DIVMTQSPSSLTVTAGEKVTMSCKSSQSLLNSGNQKNYLTWYQQKPGQPPKLLIYWASTRESGVPDRFTGSGSGTDFTLTISSVQAEDLAVYYCQNDYIYPLTFGAGTKLGLK
As to B3, the EC50 is 0.075 µg/mL in assay [1] and 0.218 µg/mL in assay [3]. The binding result in assay [2] is listed as “no binding (tested: 1 µg/ml)”.

B4: chimeric Ab 10-J10-B (antibody, V domains shown)
VH: QVQLQQSGAELARPGASVKLSCKASGYTFTSWSISWVKQRTGQGLEWIGEIYPRSDNIHYNEKFKGKATLTADKSSSTVYMQLSSLTSEDSAVYFCARAYYGNSFAYWGQGTLVTVSA
VL: DIVMTQSPSSLTVTAGEKVTMTCKSSQILLNSGNQKNYLTWYQQKPGQPPKLLIYWASTRESGVPDRFTGSGSGTDFSLTISSVQAEDLAIYYCQNDYYYPFTFGSGTKLEIK
notes: also called 10-110-B; 10-10-B
As for B4, the values for the half-maximal effective concentration (EC50) in assay [1] and in assay [3] were 0.141 µg/mL and 0.062 µg/mL, respectively. In assay [2], the binding result was “no binding (tested: 1 µg/ml)”.
